Test results reported in the nanobody polyreactivity screen of Harvey et al. (2022).

assay: yeast display, Sf9 membrane polyspecificity reagent, FACS + sequencing; frameworks hold sequencing errors
Outline: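 Using colony PCR, genes from sorted yeast display clones were amplified, then sequenced on MiSeq at 2 × 250 and filtered by CDR length. The clones had been stained with 10% biotinylated, detergent-solubilized Sf9 membrane reagent for 1 hour at 4 °C and sorted by FACS into low and high (top ~1%) gates on anti-HA and streptavidin fluorescence. Polyreactivity labels come from the gate of origin.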

Sequence	polyreactivity (PSR sort gate)
QVQLVESGGGLVQAGGSHRLSCAASGSTFVRNAMGWYRPAPAKERGLVAGISTSGGRTYYADSVKGRFTISRDNAKNTVYLQMNSLKPEDTAVYDCAVLAWRSIAYDKYDYWGQGTQVTVSS	high polyreactivity
HVQLVESGGGLVQAGGSLRLSCAASGFIGIYAMGWYRQAPGKERELVAAITTSGGRTYYADSVKGRFTISRDNAKNTVYLQMNSLKPEDTAVYYCAAPWRLFSLYDYWGQGTQVTVSS	low polyreactivity
QVQLVESGGGLVQAGGSLRLSCAASGITFWKYTMGWYRQAPGKERELVAAITGRGGSTYYADSVKGRFTISRDNAMNTVYLQMNRLKPEDTAVYYCAAELRPGYRSSYGLIYDYWGQGTQVTVSS	low polyreactivity
QVQLVESGGGLVQAGGSLRLSCAASGSIFPAYAMGWYRQAPGKERELVAAITDRGGYTYYADSVKGRFTISRDNAKNTVYLQMNSLKPEDT	low polyreactivity
QVQLVESGGGLVQAGGSLRLSCAASGSIFGQYTMGWYRQAPGKERELVAVISTRGGSTYYADSVKGRFTISRDNAKNTVYLQMNSLKPEDTAVYYCAASAFRGREMDYWGQGTQVTVSS	low polyreactivity
QVQLVESGGGLVQAGGSLRLSCAASGRIFTRYAMGWYCQAPGNDRELVAVIRDGSTYYADSVKGRFTISRDNGKNTVYLQMNSLKPEDTAVYYCRYDIWDWWSGAYDYWGQGTQVTVSS	low polyreactivity
QDQLVESGGGLVQAGGSLRLSCPASGRTFNYYAMGWYRQAPGKERELVAAISVSTTRTYYADSVKGRFTISRDNAKNTVYLQMNSLKPEDTAVYYCAAYRAGRFGYLGQGTQVTVSS	high polyreactivity
QVQIVESGGGLVQAGGSLRLSCAASGRISVFNAMGWYRQAPGKERELVAAITSGGSTNYADSVKGRFTISRDNAKNTVYLQMNSLKPEDTAVYYCNADVYHSHEPHYDYWGQGTQVTVSS	low polyreactivity
QVQLVESGGGLVQAGGSLRLSCAASGITFVDYAMGWYRQAPGKERELVAAITTGGSTNYADSVKGRFTISRDNAKNTVYLQMNSLKPEDTAVYYCNKRPVILYDYWGQGTQVTVSS	low polyreactivity
QFQLVESGGGLVQAGGSLRLSCAASGSISDIYAMGWYRQAPGKERELVASISSGGITNYADSVKGRFTISRDNAKNTVYLQMNSLKPEDTAVYYCAKDRYHISFFYQMEYWGQGTQVTVSS	low polyreactivity
QVQLVESGGGLVQAGGSLRLSCAASGFIFLGKAMGWYRQAPAKERELVAAISSGGSTYADSVKGRFTISSDNAKNTVYLQMYSLKPEDTAVYYFAVDRAFRAQNYHEYYYWGQGTQVTVSS	low polyreactivity
QVQLVESGGGLVQAGGSLRLSCAASGRIFWNYAMGWYRQAPGKERELVAAITWSGGSTYADSVNGRFTISRDNAKYTVYLQMNSLKPEDTAEYYCAAAYASYKFDYWGQGTQVTVSS	low polyreactivity
QVQLVESVVGLVQAGGSLRLSCAASGSTFLPYTMGWYRQAPGKETELVAGISGSGPRTYYADSVKGRFTISRDNAKNTVYLQMNSLKPEDTAVYYCAKKSSYRYGYWGQGTQVTVSS	high polyreactivity
QVQLVESGGGLVQAGGSLRLSCAASGRTFRSNAMGWYRQAPGKERELVATISRRGVSTYYADSVKGRFTISRDNAKNTVYLQMNSLKPEDTAVYYCTLNVGTTSRWSYDYWGQGTQVTVSS	high polyreactivity
QVQLVESRGGLVQAGGSLRLSSASSGSIFDIYEMGRYRQAPGKERELLASITWSRGSTYYADSVKGRFTISRDNAKNSVYLQINCLKPEDTAVYYCGTDKLFGRTVRMDYWGQGTQVTVSS	low polyreactivity
QVPLVESGGGLVQAGGSLRLSCAASGSIFAPYTMGWYRQAPGKERELVAAISVTTGITYYADTLKGRFTISRDNAKNTVYLQMNSLKPEDTGVYYCAAELYKSLWYEYWGQGTQVTVSS	low polyreactivity
QVQLVESGGGLVQAGGTLRLSCAASGSTFRYNAMGWYRQEPGKEWELVAAITDSGSSTYYADSVKGRFTISRDNAKNTVYLQMNSLKPEDTAVYYCAAAGSRYAWGYVYWGQGTQVTVSS	high polyreactivity
QVQLVESGGGLVQAGGSLRLSCAPSGSIFKQYAMGWYRQAPGKERELVARITGSGGSTYYTDSVKGRFTISRDNAKNTVYLQMNSLKPEDTAVYYCNAGGRDAGYDYWGQGTQVTVSS	low polyreactivity
QVQLVESGGGLVQAGGSLRLSCAASGIIFNSYAMGWYRQAPGKERELVATISGSGGSTYYADSVKGRFTISRDNAKNTVYFQMNSLKPEDTAVYSCAARTGRYYRRYDYWGQGTQVTVSS	high polyreactivity
QVQLVESGGGLVQAGGSLRLSCAASGRTFASYDMGWYRQEPGKERELVAAISVSGDSTYYADSVKGRFTISRDNAKNTFYLQMNSLKPEDTAVYYCNAEAQDYDHDYWGQSTQVTVSS	low polyreactivity
QVQLVESGGGLVQAGGSLRLSCAASGFTFDIYAMGWYRQAPGKERELVADITSGGSTDYADSVKGRFTISRDNAKNTVYLQMNSLKPEDTAVFYCNAAVFYEPEWQYDYWGQGTQVTVSS	low polyreactivity

Sequence	polyreactivity (PSR sort gate)
QVKLVESGGGLVQAGGRLSLSCAASGLTLSGNAMGWYRQAPGKDRELVAAITGRGGSTTYADSVKGRFTISRDNAKNTVYLQMNSVKPEDTAVYYCAATRYSWNNRVSRRHRYEYWGQGTQVTVSS	high polyreactivity
QVQLVESGGGLVQAGGSLRLSCASSGNTFVAYAMGWYRQAPGKERELVAGITRGGTTYYADSVKGRFTISRDNAKNTVYLQMNSLKPEDTAVYYCAARLGYRYNYWGQGTQVTVSS	high polyreactivity
QVQLVESGGGLVQAGGSLRLSCAASGSIFYPYAMGWYRQAPGKEREWVATITLSGGRTYYADSVKGRFTISRDNAKNTVYLQMNSLKPEDTAVYYCATDYAYGAFLYDYWGQGTQVTVSS	low polyreactivity
QVQLVESGGGLVQAGGSLRLSCAASGRTFVYYAMGWYRQAPGTERELVAAISTGGSTNYADSVKGRFTISRDNAKNSVYLQMNSLKPEDTAVYYCAAQYYISISKYDYWGQGTQVTVSS	low polyreactivity
QVQLVDSGGGLVQAGGSLRLSCAASGYTLSVNAMGWYRQAPGKERELVATIDFGGGSTYYADSVKGRFTISRDNAKNTVYLQMNSLKPEDTAVYYCNAHDFGFYRFSLPGYDYWGQGTQVTVSS	low polyreactivity
QVQLVESGGGLVQAGGSLRLSCAASGRIFRAYAMGWYRQAPRKERELVAAISYRGGSTYYADSVKGRFTISRDNAKNTVYLQMNSLKPEDTAVYDCAADSDRSVWIYGYWGQGTQVTVSS	low polyreactivity
QVQRVESGGGLVQAGGSLRLSCAASGSIFSSNVMGWYRQAPGKEREIVAAITTGGSTNYADSVKGRFTISRDNAKNTVYLQMYCLKREDTAFYYCSFSYGYYLFVDWGYGCWGQGSQVTVSS	low polyreactivity
QVQLVESGGGLVQAGGSLRLSCAASGRIFFGYAMGWYRPAPGKERVLVAAISSRGGSTYYADSVKGRFTISRDNAKNTVYLKMNSLKPEDTAVYYCARKRYKRSTRTEFGYWGQGTQVTVSS	high polyreactivity
QVQLVESGGGLVQAGGSLRLSCAASGSIFVNNALGWDRQAPGKDWELVAAISSRGGSTYYADSVKGRFTISRDNAKNTVYLQMHSLKPEDTAVYYCAAEYDGPYYSFYPEQRYYWGQGNQVTVSS	low polyreactivity
QVQIVESGGGLVQAGGSLRLSCAASGIIFPVYVMGWYRQAPGKERELVAAISKRGGSTYYADSVKGRFTISRDNAKNTVYLQMNSLKPEDTAVYYCAADRSRHSFYWEYDYWGQGTQVTVSS	high polyreactivity
QVQLVETGGGLDQAGGSLRLSCAASGRIFRKYVMGWYRQAPGKERELVAVISSGASTNYADSVKGRFTISRDNAKNTVYLQMNSLKPEDTAVYYCAKYGKYTWRQGGYWGQGTQVTVSS	high polyreactivity
QVQLVESGGGLVQAGGSLRLSCAASGSIFGIYAMGWYRQAPGKERELVAAISWSGGSTYYADSVKGRFTISRDNAKNTVYLQMNSLKPEDTAVYYCNADVQLFGWWYGMDYWGQGTQVTVSS	high polyreactivity
QVQLQESGGGLVQAGGSLRLPCAASGNISDAGYMGWYRQAPGKQREFVAAIAAGSNTNYADSVKGSFTISRDNAKNTVYLQMNSLKPEDTAVIFFAVASYARVQYEYWGQGTQVTVNS	low polyreactivity
QVQLVESGGGLVQAGGSLRLSCAASGSIFGFYDMGWYRQAPGKERELVAAITTGGSTYYADSVKGRFTISRDNAKNTVYLQMNSLKPEDTAVYYCAKERWFPYERNDYWGQGTQVTVSA	low polyreactivity
QVQLVESGGGLGHAGGSLRLSCAASGFTYTAYAMGWYRQAPGKERELVPSISKSDGSTYYADSVKGRFTISRDNAKNTVYLQMKSVKPEDTAVYYCATGRISRDFHRVQDLGYDYWGQGTQVNVSS	low polyreactivity
QVQLVESGGGLVQAGGSLRLSCAASGSIFNRYTMGWYRQAPGKERELVAAISKRGGSTYYADSVKGRFTISRDNAKNTVYLQMNSLKPEDTAVYYCAAAAYHSGKGGGYWGQGTQVTVSS	high polyreactivity
QVQHVESGVGLVQAGGSLRLSCAASGSTFSWYTMGWYRQAPGKERELVAAISWSGGRTYYADSVKGRFTISRDNAKNTVYLQMNSLKPEDTAVYYCAAYDYWYSLGDYQFYYWGQGTQVTVSS	low polyreactivity
QVQLVESGGGLVQAGGSLRLSCAASGSTFRSNAMGWYRQAPGKERELVAAIRYSGGSTYYADSVKGRFTISRDNAKNTVYLQMNSLKQEDTAVYYCATRFRTYYVDHGYWGQGTQVTVSS	high polyreactivity
QVQLVESGGGLVQAGGSLRLSCAASGNTFNNNAMGWYRQAPGKERELVAITGDGGSTYYADSVKGRFTISRDNAKNTVYLQMNSLKPEDTAVYYCAADYLYRYQTMGYWGQGTQVTVSS	low polyreactivity
QVQLVESRGGLVQAGGSLRLSCAASGSIFPYYAMGWYRQAPGKERELVAAISLSGVSTTYADSVKGRFTISRDNAKNTVYLQMNSLKPVDTAVYYCAAKSFWSRYVGGYYWGQGTQVTVSS	high polyreactivity
